From the RNAGym collection of RNA variant scans (doi:10.1073/pnas.2313332121)

B1: TPR t1 (parent)
chain: GACCAAUCUGCCCUCAGAGCUCGAGAACAUCUUCGGAUGCAGAGGAGGCAGGCUUCGGUGGCGCGAUAGCGCCAACGUCCUCAACCUCCAAUGCAUCCCACCACAUGAUGAUGCCUGAAGAGCCUUGGUUUUUUG

Variants of: B1
Test: polymerase ribozyme fitness, log enrichment relative to wild type (log ratio); higher = more active; in vitro selection for triplet polymerase activity
How it was run: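 Frozen incubation at −7 °C formed the core of a single, triplicate in vitro selection round applied to PCR-built, transcribed mutant libraries of each subunit of a heterodimeric triplet polymerase ribozyme. Extended constructs were gel-excised, captured with streptavidin beads and amplified by RT-PCR, and input and output libraries were Illumina-sequenced with a filter of ≥10 input reads and ≥1 read per output. Fitness is the logarithm of genotype enrichment relative to wild-type enrichment, with inverse-variance-weighted replicate averaging, and the logarithm is base 2.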

Row | Variant | polymerase ribozyme fitness (log ratio)
1 | A41G A43G | -1.45
2 | C40G C56U G77A | -0.862
3 | C40G C53G G61C C104A G113A | -4.09
4 | C40U G48U A50C G51A | -3.99
5 | C40U U78C U132A | -1.65
6 | A41C G52U C72G U96A | -4.71
7 | C40U G61U C97A | -5.61
8 | A41C U131G | -0.589
9 | C40U C49A C72G A74U C94U G117C | -6.96
10 | C40U A90U | -1.76
11 | C40G G71A U125A | -2.35
12 | C40U A46U C88U | -2
13 | C40U A41C G71A | -2.9
14 | C40U U130G | -0.974
15 | C40G C72G C73A U78G | -4.57
16 | A41G A83C C98U | -1.73
17 | C40U C124G | 1.52
18 | C40G G44C C72A U78G C94G A121C G128U | -6.15
19 | A41C A74G C98U | -1.89
20 | C40G G110A | -1.53
21 | A41C C62U G110A | -3.63
22 | C40G U67C C70U U116C U133C | -5.53
23 | C40G U92A | -3.01
24 | C40U C80U C86U A91C U112G | -3.87

Row | Variant | polymerase ribozyme fitness (log ratio)
25 | A41C U126G U130G | -4.83
26 | A41G C70U C82A U125G | -1.79
27 | A41C C56G A74C | -5.29
28 | C40G G77U C101G U112A | -1.23
29 | C40U U96G C115G A118U G122U | -3.71
30 | C40U G42A G63C U125G | -2.99
31 | C40G C64U U81A | -2.3
32 | C40U U59C C85G | -2.73
33 | C40U C53U C70U C72U C97U | -1.36
34 | C40G G48U C82A | -2.43
35 | C40G U112A | 1.38
36 | C40U G69C U78A G110A | -5.28
37 | C40U A43U C49A U55C G61C A84C G110C U131C | -6.76
38 | C40U C56G G63C | -3.69
39 | C40U G60A | -0.683
40 | A41C C64U U78C U106A | -1.57
41 | A41C C53U G122A | -2.04
42 | A41C C62A C82U | -2.04
43 | C40G C53U G127C | -1.33
44 | C40G G61C A118U | -1.55
45 | A41C C123A | -0.408
46 | A41C C56G C85U C102U | -5.51
47 | C40G U55G U78G | -2.04
48 | C40G C49A C64U A119U U126A | -3.13

Row | Variant | polymerase ribozyme fitness (log ratio)
49 | A41G A95G C114U | -2.64
50 | C40G C79U C101U G113U | -4.09
51 | C40G U59A C72U G110C G117A A119C U129G U133G | -7.24
52 | C40U C73U | -0.508
53 | A41C G42U C104U C114A | -3.04
54 | C40U G61U A119U G122U | -0.621
55 | A41C C70A A118G | -3.8
56 | A41C C72U A74G A91U A95C G113A | -3.31
57 | C40G A43G C114U | -4.36
58 | A41C G69U C82U A105U C123A | -1.3
59 | C40U G47A U109A C114U | -6.24
60 | C40G C114G | -4.17
61 | C40U G60A G120U | -0.0652
62 | C40G G113U C114U U133G | -2.25
63 | C40U C56G C70U | -2.46
64 | C40U A46G U78G | -0.597
65 | C40G A91C C98U | -5.6
66 | A41C A43U C53U U126C | -2.72
67 | C40U C70A C85U G135U | -4.91
68 | C40G A41U G45A A91U | -4.47
69 | C40U C56A A74C U130C | -1.15
70 | C40U G47A A118G | -2.47
71 | A41C C76A C79A U112A U125C | -2.16
72 | C40U G48A A50C C72A | 0.216

Row | Variant | polymerase ribozyme fitness (log ratio)
73 | C40U G77A | -1.17
74 | A41C G61U C70G C101A A111C | -5.73
75 | C40G A41U G45U | -5.41
76 | A41C U78G G122A | -1.85
77 | C40U U92C G110A G117C | -6.39
78 | C40U C62U | -0.882
79 | C40U G69A C72U C124A | -1.11
80 | A41C U106C A111C | -2.11
81 | C40G C56A G69C C115G | -6.15
82 | C40U G51U G58A | -4.36
83 | C40U G45U G48U C82G A84G G120A | -2.88
84 | C40U G45U G63A | -2.6
85 | A41G A118G G120U U130A | -1.43
86 | A41C U81A U133G | -2.53
87 | C40G C56G C124G G127U | -0.222
88 | C40G G57U | -1.36
89 | A41G A46U G63A C82U U87G | -2.41
90 | C40U C72G U106A C123G U126A U131A | -1.25
91 | C40U G42C G63U C85U U130A | -5.03
92 | C40U U92C | -1.86
93 | C40U G45C C49U G63U A83U | -5.92
94 | C40U A50C C76G G77C C80U U131G | -4.6
95 | C40G G117C | -3.98
96 | C40G G58C G60U C101U U126C | -2.69

Row | Variant | polymerase ribozyme fitness (log ratio)
97 | C40G C56A | -1.63
98 | C40U A43U G69U | 0.0551
99 | A41C U112A | 0.299
100 | C40G G69A C79U | -2.89
101 | C40U C80G | -5.42
102 | C40U A46C C64U | -2.21
103 | A41C G48U A111C | -3.12
104 | C40G G63A U92G | -3.61
105 | C40U G44A A121U | 0.301
106 | C40U A84C U112A | 0.737
107 | A41G C49G C82U C85U U131G | -1.67
108 | C40G C49U | -2.95
109 | C40G C82U U106A | -1.73
110 | C40G C49U A84U | -2.42
111 | C40U A90G C102G | -4.16
112 | C40U C115A | -0.771
113 | A41C C70G | -3.91
114 | A41C C70U | -2.04
115 | A41C C53U | -0.83
116 | A41C G69C A83G | -3.72
117 | A41C A74U U87C | -0.35
118 | C40U C94U | -1.54
119 | C40G G63U G120A | -0.497
120 | C40U C99A | -4.45

Row | Variant | polymerase ribozyme fitness (log ratio)
121 | C40U C99U | -3.93
122 | A41C A105G | -3.93
123 | A41C A105C | -5.23
124 | C40U A43U A90G G113U | -3.26
125 | C40U G44A G63A | -1.6
126 | C40U U109C | -4.01
127 | A41C C114U | -2.16
128 | C40G G51A C56A C72A A121U | -3.83
129 | C40G A50U G63C | -2.25
130 | A41C G117U | -2.87
131 | C40G A46C G48U C73G C124G | -5.04
132 | C40U G122A U130A | -1.96
133 | C40G C62U C72A A83G | -3.49
134 | C40G C102U U116G C124U | -4.94
135 | C40U C56U A91C C97U C115U | -3.89
136 | A41C C73G C85A A118U | -3.17
137 | C40U A68U G69A C88U G93A U133A | -6.63
138 | C40U C114U | -2.55
139 | C40U C62U G135U | -1.68
140 | C40G C53U | -0.175
141 | C40G G77A C97U | -4.09
142 | C40G C53A C123G | 0.48
143 | A41G A50U | -1.71
144 | C40U U116A | -3.34

Row | Variant | polymerase ribozyme fitness (log ratio)
145 | C40U A43G G61A C97U | -3.06
146 | A41C U55A C102U | -3.43
147 | A41C G58A C72U | -0.757
148 | C40U G52U C62U | -1.16
149 | A41G A46U | -3.31
150 | C40U A83G G128A U129G | -3.53
151 | C40U C73G C123G U132A | 0.0747
152 | C40G U59A | -1.68
153 | C40G G110A U132A | -1.48
154 | C40U A43C C64U G93C C115A | -2.31
155 | C40G C115U | -2.07
156 | C40U C98U | -2.01
157 | C40G G44A C98U | -5.49
158 | A41C G48A G60A C86U U96G | -3.39
159 | A41C G63C A90C C123G G128C | -3.12
160 | A41C G44U C115A G122U U130G | -4.66
161 | C40G G57A A84C U112A G122A | -3.59
162 | C40U G60C C82U A90G A95U C97A C123G | -7.02
163 | C40U A41C | -2.44
164 | C40U C80A A84U | -4.52
165 | A41C C82U | -1.12
166 | A41C A90C C123G G128C | -2.07
167 | C40U G42A C114U | -1.92
